# Measured values as given in US20200308299A1, “ANTI-GPC-1 ANTIBODY” (National University Corporation Kochi University, priority 2017, published 2020).
# What was measured:
# TE14 cells = experiment: ADC assay combining anti-GPC-1 antibody and MMAF binding secondary antibody, TE14 cells; assay type: cell-based
# Outline: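 TE14 […] cells (2000/well, RPMI1640 + 10% FBS) exposed to anti-GPC1 primary antibody (final 0–1.0 nM) plus 2 μg/ml MMAF-conjugated anti-mouse Fc Fab secondary for 6 days at 37° C, 5% CO2. Viability measured by CellTiter-Glo ATP luminescence.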
# TE8 cells [1] = experiment: ADC assay combining anti-GPC-1 antibody and MMAF binding secondary antibody, TE8 cells; assay type: cell-based; conditions: primary antibody plus MMAF secondary antibody
# TE8 cells [2] = experiment: Internalization assay on GPC1 ADC (01a033), TE8 cells; assay type: cell-based; conditions: 0-24 h
# Description: Detection was performed on cells treated with GPC1 ADC (01a033) MMAF with anti-GPC1 mAb (biotin-labeled 02b006) and PE-labeled streptavidin.
# TE8, HeLa, ME180, BxPC3, and T3M4 cell strains were detached and collected from a 10 cm plate using 0.02% EDTA. Cells were suspended in RPMI1640+10% FBS+100 U/ml penicillin+100 μg/ml streptomycin, and two 1.5 ml tubes were created at 1.0×10^6 cells/0.9 ml. To lower the internalization activity, the tubes were left standing on ice for 1 hour. 1 mg/ml of GPC1 ADC (01a033) MMAF was diluted to 24 μg/mL (160 nM) with ice-cooled RPMI1640+10% FBS+100 U/ml penicillin+100 μg/ml streptomycin. 100 μl of the ADC was added and suspended in the cell suspension and incubated on ice for 30 minutes to stain the antigens on the cell surface. After 30 minutes, the cell suspension was dispensed into 7 tubes each at 100 μl each. The cell suspension was separated into 4° C. incubation group and 37° C. incubation group in 14 tubes. The incubation times were 0.0 h, 1 h, 2 h, 3 h, 4 h, 6 h, 12 h, and 24 h. After reaching the incubation time, the cells were centrifuged at 1500 rpm at 4° C. for 5 minutes to remove the supernatant. The cells were washed with 100 μl of ice cooled PBS+0.2% BSA and subjected to centrifugation to wash the cells. Washing operation was performed three times in total. […]
# BxPC3 cell strain = experiment: In vivo efficacy test on GPC1 ADC using pancreatic cancer cell strain BxPC3 in SCID mice; design: species or system mouse
# Description: Specifically, 5.0×10^6 cells of the BxPC3 cell strain were subcutaneously grafted into female SCID mice. […] The tumor volume and body weight were measured on day 0, day 4, day 8, day 12, day 16, day 20, day 24, day 28, day 32, and day 36.
# After subcutaneous tumorigenesis of BxPC3, (1) PBS, (2) control ADC at 10 mg/kg, and (3) GPC1-ADC at 1 mg/kg, 3 mg/kg, and 10 mg/kg were administered once into the tail vein. The tumor was extracted after 24 hours. After deparaffinization of a section of a paraffin embedded tissue, the slice was dehydrated with alcohol.
# Immunohistochemical staining on Phospho-Histon H3 (Ser10) was performed using an anti-Phospho-Histon H3 (Ser10) antibody (Cell Signaling Technology: #9701) and ChemMate Envision kit HRP 500T (Dako: K5007).
# ME180 cell strain = experiment: In vivo efficacy test on GPC1 ADC using cervical cancer cell strain ME180 in SCID mice; design: species or system mouse
# Description: Specifically, 1.0×10^6 cells of ME180 cell strain were subcutaneously grafted into female SCID mice. […] The tumor volume and body weight were measured on day 0, day 4, day 8, day 12, day 16, day 20, day 24, day 28, and day 32.
# After subcutaneous tumorigenesis of ME180, (1) PBS, (2) control ADC at 10 mg/kg, and (3) GPC1-ADC at 10 mg/kg were administered once into the tail vein. The tumor was extracted after 24 hours. After deparaffinization of a section of a paraffin embedded tissue, the slice was dehydrated with alcohol. Immunohistochemical staining on Phospho-Histon H3 (Ser10) was performed by using an anti-Phospho-Histon H3 (Ser10) antibody (Cell Signaling Technology: #9701) and ChemMate Envision kit HRP 500T (Dako: K5007).
# [3] = Single dose safety test on GPC1 ADC in C57BL/6J mice
# Description: A single dose (1 ml) of control PBS, control ADC (50 mg/kg), anti-GPC1 ADC (3 mg/kg), anti-GPC1 ADC (15 mg/kg), and anti-GPC1 ADC (50 mg/kg) was intraperitoneally administered on day 1 to a group of 4 male and 4 female C57BL/6J mice (8W). The mice were dissected after 7 days from administration.
# *Blood collection (Blood cell count, biochemical test)
# [4] = primary antibody plus MMAF secondary antibody
# [5] = any dosage tested (1, 3, 10 mg/kg)
# [6] = single ip dose, high dose administration group, not GPC1-ADC specific
molecule,measurement,setting,value
clone 01a033 (antibody) heavy: QVQLKQSGPELVKPGASVKISCKASGYSFTGYYMHWVKQSPEKSLEWIGEINPSTGDTTYNQKFKAKATLTVDKSSSTAYMQLKSLTSEDSAVYYCAREKRDDGVFAYWGQGTLVTVSSAKTTAPSVYPLAPVCGDTTGSSVTLGCLVKGYFPEPVTLTWNSGSLSSGVHTFPAVLQSDLYTLSSSVTVTSSTWPSQSITCNVAHPASSTKVDKKIEPRGPTIKPCPPCKCPAPNLLGGPSVFIFPPKIKDVLMISLSPIVTCVVVDVSEDDPDVQISWFVNNVEVHTAQTQTHREDYNSTLRVVSALPIQHQDWMSGKEFKCKVNNKDLPAPIERTISKPKGSVRAPQVYVLPPPEEEMTKKQVTLTCMVTDFMPEDIYVEWTNNGKTELNYKNTEPVLDSDGSYFMYSKLRVEKKNWVERNSYSCSVVHEGLHNHHTTKSFSRTPGK light: DIVMSQSPKSMSMSVGERVALSCKASENVGTYVSWYQQKPEQSPKLLIYGASNRYTGVPDRFTGSGSATDFTLTISSVQAEDLADYYCGQSYSYPLTFGAGTKLELKRADAAPTVSIFPPSSEQLTSGGASVVCFLNNFYPKDINVKWKIDGSERQNGVLNSWTDQDSKDSTYSMSSTLTLTKDEYERHNSYTCEATHKTSTSPIVKSFNRNEC,ADC activity,"TE14 cells; primary antibody plus Fab-aMFc-CL-MMAF secondary antibody 2 μg/ml, 6 days",highest ADC activity
same,EC50 values against TE14 cells,TE14 cells; [4],excellent EC50 values
same,antitumor effect on TE14,TE14 cells; [4],particularly potent antitumor effect
same,antitumor effect on TE8,TE8 cells [1],particularly potent antitumor effect
GPC1 ADC (conjugate) heavy: QVQLKQSGPELVKPGASVKISCKASGYSFTGYYMHWVKQSPEKSLEWIGEINPSTGDTTYNQKFKAKATLTVDKSSSTAYMQLKSLTSEDSAVYYCAREKRDDGVFAYWGQGTLVTVSSAKTTAPSVYPLAPVCGDTTGSSVTLGCLVKGYFPEPVTLTWNSGSLSSGVHTFPAVLQSDLYTLSSSVTVTSSTWPSQSITCNVAHPASSTKVDKKIEPRGPTIKPCPPCKCPAPNLLGGPSVFIFPPKIKDVLMISLSPIVTCVVVDVSEDDPDVQISWFVNNVEVHTAQTQTHREDYNSTLRVVSALPIQHQDWMSGKEFKCKVNNKDLPAPIERTISKPKGSVRAPQVYVLPPPEEEMTKKQVTLTCMVTDFMPEDIYVEWTNNGKTELNYKNTEPVLDSDGSYFMYSKLRVEKKNWVERNSYSCSVVHEGLHNHHTTKSFSRTPGK light: DIVMSQSPKSMSMSVGERVALSCKASENVGTYVSWYQQKPEQSPKLLIYGASNRYTGVPDRFTGSGSATDFTLTISSVQAEDLADYYCGQSYSYPLTFGAGTKLELKRADAAPTVSIFPPSSEQLTSGGASVVCFLNNFYPKDINVKWKIDGSERQNGVLNSWTDQDSKDSTYSMSSTLTLTKDEYERHNSYTCEATHKTSTSPIVKSFNRNEC,residual amount of Glypican-1 on the cell surface,"TE8 cells [2]; TE8, incubation at 4° C.",hardly changed
same,Glypican-1 remaining on the cell surface,"TE8 cells [2]; TE8, incubation at 37° C.",decreases with the passage of incubation time
same,tumor volume,"BxPC3 cell strain; 3 mg/kg iv day 0, 4, 8, 12",tumor volume was significantly reduced
same,tumor volume,"BxPC3 cell strain; 10 mg/kg iv day 0, 4, 8, 12",tumor volume was significantly reduced
same,change in the body weight,BxPC3 cell strain; [5],significant change in the body weight was not observed
same,"antitumor effect (tumor volume, tumor weight day 36)","BxPC3 cell strain; iv day 0, 4, 8, 12, anti-GPC1 ADC 1, 3, 10 mg/kg (all groups), control ADC 10 mg/kg",significant antitumor effect
same,G2/M phase arrest in tumor tissue (Phospho-Histon H3 (Ser10) staining),"BxPC3 cell strain; single tail vein dose 1, 3, 10 mg/kg, tumor extracted after 24 hours",resulted in G2/M phase arrest
same,"antitumor effect (tumor volume, tumor weight day 32)","ME180 cell strain; 1 mg/kg iv day 0, 4, 8, 12",slight antitumor effect
same,"antitumor effect (tumor volume, tumor weight day 32)","ME180 cell strain; 3 mg/kg iv day 0, 4, 8, 12",slight antitumor effect
same,"antitumor effect (tumor volume, tumor weight day 32)","ME180 cell strain; 10 mg/kg iv day 0, 4, 8, 12",significant antitumor effect
same,tumor volume,"ME180 cell strain; 10 mg/kg iv day 0, 4, 8, 12",tumor volume was significantly reduced
same,change in the body weight,ME180 cell strain; [5],significant change in the body weight was not observed
same,G2/M phase arrest in tumor tissue (Phospho-Histon H3 (Ser10) staining),"ME180 cell strain; single tail vein dose 10 mg/kg, tumor extracted after 24 hours",resulted in G2/M phase arrest
same,toxicity from the results of the hematological test,[3]; single ip dose,Significant toxicity due to ADC administration was not observed
same,anemia (hemoglobin),[3]; single ip dose 50 mg/kg,Mild anemia
same,amylase,"[3]; single ip dose 3, 15, 50 mg/kg",Specific abnormality was not observed
same,platelet count,"[3]; single ip dose 3, 15, 50 mg/kg",Abnormal platelet count specific to each group was not observed
same,change in the body weight,"[3]; single ip dose, groups other than 50 mg/kg (3, 15 mg/kg), 7 days",Significant change in the body weight was not observed
same,liver function (ALT),[3]; [6],An abnormality in the liver function was found
same,white blood cells,[3]; [6],increase in the while blood cells was observed
